Tests used:
Assay in all cases: Enzyme kinetics on glycoside substrates, released glucose, Michaelis-Menten (Bgl1-His6)
Format in all cases: biochemical, Yarrowia lipolytica
Conditions in all cases: other: apparent, 0.120 nM Bgl1-His6, mean of three experiments, SD below 10%, pH 7.4, 28.0 °C
[1] = substrate: CCCCCCCCO[C@@H]1O[C@H](CO)[C@@H](O)[C@H](O)[C@H]1O
Experimental: (§1) Y. lipolytica JMY1212 overproducing Bgl1-His6 and Bgl2 were grown in 200 mL YTD medium at 130 rpm, 28° C. for 36 h before centrifugation at 8,000×g for 5 min. For purification of Bgl1-His6, the cell pellet was washed, suspended in 50 mL phosphate buffer (50 mM, pH 7.4) and homogenized over a 3-min period using a MP FastPrep-24 Instrument. After centrifugation (8,000×g for 5 min at 4° C.), the supernatant was applied to 2 mL of TALON Metal Affinity Resin (Clontech Takara-Bio, Kyoto, Japan) and protein was eluted using imidazole buffer according to the manufacturer's instructions.
(§2) When using aryl-substrates, the standard assay method was employed, simply replacing pNPGlc by another substrate as appropriate. For oligosaccharides, the release of glucose was quantified using an enzyme kit (D-Fructose/D-Glucose Assay Kit, liquid stable, Megazyme). […] Initial rates were fitted to the Michaelis-Menten kinetic equation using a nonlinear regression (SigmaPlot 10) to extract the apparent KM and kcat (Segel, 1993).

[2] = substrate: OC[C@H]1O[C@@H](OC[C@H]2OC(O)[C@H](O)[C@@H](O)[C@@H]2O)[C@H](O)[C@@H](O)[C@@H]1O
Experimental: as §1, §2

[3] = substrate: OC[C@H]1O[C@@H](O[C@H]2C(O)O[C@H](CO)[C@@H](O)[C@@H]2O)[C@H](O)[C@@H](O)[C@@H]1O
Experimental: as §1, §2

[4] = substrate: OC[C@H]1O[C@@H](O[C@H]2[C@H](O)[C@@H](CO)OC(O)[C@@H]2O)[C@H](O)[C@@H](O)[C@@H]1O
Experimental: as §1, §2

[5] = substrate: OC[C@H]1O[C@@H](O[C@H]2[C@H](O)[C@@H](O)C(O)O[C@@H]2CO)[C@H](O)[C@@H](O)[C@@H]1O
Experimental: as §1, §2

[6] = substrate: OC[C@H]1O[C@@H](O[C@H]2[C@H](O)[C@@H](O)[C@H](O[C@H]3[C@H](O)[C@@H](O)C(O)O[C@@H]3CO)O[C@@H]2CO)[C@H](O)[C@@H](O)[C@@H]1O
Experimental: as §1, §2

[7] = substrate: OC[C@H]1O[C@@H](O[C@H]2[C@H](O)[C@@H](O)[C@H](O[C@H]3[C@H](O)[C@@H](O)[C@H](O[C@H]4[C@H](O)[C@@H](O)C(O)O[C@@H]4CO)O[C@@H]3CO)O[C@@H]2CO)[C@H](O)[C@@H](O)[C@@H]1O
Experimental: as §1, §2

[8] = substrate: OC[C@H]1O[C@@H](O[C@H]2[C@H](O)[C@@H](O)[C@H](O[C@H]3[C@H](O)[C@@H](O)[C@H](O[C@H]4[C@H](O)[C@@H](O)[C@H](O[C@H]5[C@H](O)[C@@H](O)C(O)O[C@@H]5CO)O[C@@H]4CO)O[C@@H]3CO)O[C@@H]2CO)[C@H](O)[C@@H](O)[C@@H]1O
Experimental: as §1, §2

[9] = substrate: OC[C@H]1O[C@@H](O[C@H]2[C@H](O)[C@@H](O)[C@H](O[C@H]3[C@H](O)[C@@H](O)[C@H](O[C@H]4[C@H](O)[C@@H](O)[C@H](O[C@H]5[C@H](O)[C@@H](O)[C@H](O[C@H]6[C@H](O)[C@@H](O)C(O)O[C@@H]6CO)O[C@@H]5CO)O[C@@H]4CO)O[C@@H]3CO)O[C@@H]2CO)[C@H](O)[C@@H](O)[C@@H]1O
Experimental: as §1, §2

B1: Yarrowia lipolytica β-glucosidase Bgl1-His6 (YALI_BGL1, YALI0F16027g, SEQ ID NO: 4; mature SEQ ID NO: 1), His6-tagged (Yarrowia lipolytica CLIB122) (protein)
chain: SPDWYPTPEIGSITSDWADALGESMDILAQLTLPEKVNITTGTGWRGGQCVGNTGAVPRLGIKGLCLQDGPLGVRFADFVNVFPCQNAMAATFDRILVHQRGTAIGRQSRLKGVDVHLGPVVGPLGRHATGGRNWEGFSPDPYLSGKLAFEAILGVQEEGVLATIKHFIGNEQEHYRRAEEWRDGFGFKDLKDAVSSNIEDRALHELYMWPFADAVRANVGSVMCSYNYVNGTQACQNSDLLNGKLKSELGFQGFVMSDWFAQGSGVSNALAGMDMSMPGNDVDELETVFWGEQLTRMVANGTLPEARLDDMVLRILTPLIYFGIDDRTPNFSSFVDTTVGSPHPAAKHSKKVKDVITNYHLDVRDQFAANVALDSARGAVVLLFNDGILPLKNISAIGVFGVGSRLGPNGAVCGENMQCSDGALIEGWGSGTAYPTEYESPYEALHKKASLLEVSVTGTTESWDMRLPLELAGDTDVNIVYVLANSGESTANVDKNLGDRRNVSLWHNGDELINTVASQGQTVVVVTTVGQVDMTAWLNHPNISAVLLTAPAGDYGGKAIADVLFGEVNPSGKLPYTIAANTSDYIPIVTKIPRDGAPQSDFVEGIYLDYKWYDKFERTPLYEFGYGLSYTTYSFSNLHLDVKEISEFLPPRPVPVQVTKPKMTNIDIEDLYVPNDFKMIDGLVYPWILNASAPLADSQTQFPFANGAGHVSDASGGVGGHPWLWSNAVTVTHNTTNCGDVAGRVVSQLYVAFPETLIDSPPVQLRGFDKSKLLNPGESQMTEYNLNWRDLAIWDVELQSWRVQRGEYSVYIGHSSREFELCETFTL
Km [1]: 860 µM | kcat [1]: 32.8 s⁻¹ | kcat/Km [1]: 38100 M⁻¹ s⁻¹ | Km [2]: 1160 µM | kcat [2]: 43.6 s⁻¹ | kcat/Km [2]: 37600 M⁻¹ s⁻¹ | Km [3]: 2250 µM | kcat [3]: 28.4 s⁻¹ | kcat/Km [3]: 14800 M⁻¹ s⁻¹ | Km [4]: 680 µM | kcat [4]: 75.6 s⁻¹ | kcat/Km [4]: 111000 M⁻¹ s⁻¹ | Km [5]: 260 µM | kcat [5]: 21.1 s⁻¹ | kcat/Km [5]: 81100 M⁻¹ s⁻¹ | Km [6]: 430 µM | kcat [6]: 20.5 s⁻¹ | kcat/Km [6]: 47700 M⁻¹ s⁻¹ | Km [7]: 1890 µM | kcat [7]: 30.9 s⁻¹ | kcat/Km [7]: 16300 M⁻¹ s⁻¹ | Km [8]: 2180 µM | kcat [8]: 29.5 s⁻¹ | kcat/Km [8]: 13500 M⁻¹ s⁻¹ | Km [9]: 3010 µM | kcat [9]: 31.5 s⁻¹ | kcat/Km [9]: 10500 M⁻¹ s⁻¹
